Data on four molecules can be found in patent publication US20240279341A1 (Alector, published 2024).

In experiment [1] the target is T1, human MerTK on M2c-differentiated human macrophages (human, UniProt Q12866 21-999).
T1 construct: Endogenous MerTK of primary human macrophages; also called M2c-huMacrophages
T1 sequence: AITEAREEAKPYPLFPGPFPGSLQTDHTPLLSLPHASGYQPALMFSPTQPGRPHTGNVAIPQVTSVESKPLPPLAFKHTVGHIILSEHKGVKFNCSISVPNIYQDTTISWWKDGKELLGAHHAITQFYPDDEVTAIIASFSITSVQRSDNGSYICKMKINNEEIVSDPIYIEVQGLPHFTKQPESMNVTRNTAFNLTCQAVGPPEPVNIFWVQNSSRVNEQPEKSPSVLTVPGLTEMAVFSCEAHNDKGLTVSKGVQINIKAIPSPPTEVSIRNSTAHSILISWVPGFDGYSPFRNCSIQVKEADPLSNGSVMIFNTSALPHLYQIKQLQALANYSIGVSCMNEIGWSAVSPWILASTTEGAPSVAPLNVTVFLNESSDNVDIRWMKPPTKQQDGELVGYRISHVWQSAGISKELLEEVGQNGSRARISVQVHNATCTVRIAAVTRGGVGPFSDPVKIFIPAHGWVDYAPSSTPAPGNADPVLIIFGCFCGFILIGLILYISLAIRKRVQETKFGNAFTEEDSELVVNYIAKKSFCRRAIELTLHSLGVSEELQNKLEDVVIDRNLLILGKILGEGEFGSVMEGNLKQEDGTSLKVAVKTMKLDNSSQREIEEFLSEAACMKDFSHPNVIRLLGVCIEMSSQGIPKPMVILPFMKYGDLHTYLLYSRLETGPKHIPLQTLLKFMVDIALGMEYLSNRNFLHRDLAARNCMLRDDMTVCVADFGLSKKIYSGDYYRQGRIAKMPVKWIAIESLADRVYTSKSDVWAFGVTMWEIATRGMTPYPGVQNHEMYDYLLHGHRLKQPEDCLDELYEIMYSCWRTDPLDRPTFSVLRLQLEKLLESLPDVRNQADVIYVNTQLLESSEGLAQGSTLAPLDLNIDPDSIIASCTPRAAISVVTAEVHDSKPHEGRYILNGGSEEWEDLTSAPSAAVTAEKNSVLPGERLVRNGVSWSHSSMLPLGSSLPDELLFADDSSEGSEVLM
Briefly: flow cytometry on M2c-differentiated human macrophages, Dylight650-conjugated antibody; average FACS Kd from Prism fit of MFI. An excerpt: (§1) Human macrophages were differentiated from human monocytes for 7 days in the presence of human M-CSF, resulting in M2c-differentiated human macrophages. After 7 days, the differentiated human macrophages were harvested (by scraping), resuspended in PBS, and plated on 96-well plates for use. CHO cells overexpressing human MerTK (CHO-huMerTK OE), CHO cells overexpressing human PDL1 (CHO-huPDL1 OE), and M2c-differentiated human macrophages were stained with Dylight650-conjugated bispecific anti-MerTK:anti-PDL1 antibodies, or bivalent anti-MerTK antibodies for 30 min on ice. A range of antibody concentrations were used in these studies to obtain binding curves. All antibodies tested in these studies were IgG1 having Fc regions comprising LALAPS mutations. Cells were fixed and then acquired on a BD FACS Canto II cytometer. The mean fluorescence intensity (MFI) was calculated using FlowJo software and Kd value was calculated using Prism software.

The target in experiment [2] is T2, human PDL1 (human, UniProt Q9NZQ7 19-290).
T2 construct: whole, on cells; Also used as the target for the monovalent anti-PDL1 antibody on M2c-differentiated human macrophages (endogenous PDL1); also called huPDL1; programmed death-ligand 1
Briefly: flow cytometry on CHO-huPDL1 OE cells, Dylight650-conjugated antibody.
Source text: as §1
Background: Flow cytometry measures light scatter and fluorescence of single cells or particles in a stream.

In experiment [3] the target is T2, human PDL1. Briefly: flow cytometry, Dylight650-conjugated antibody on CHO-huPDL1 OE cells, MFI. The method, then:
(§2) To determine whether bispecific anti-MerTK:anti-PDL1 antibodies of the present disclosure bind to different cell types, the following experiments were performed. Cells used in these studies included CHO cells overexpressing human MerTK (CHO-human MerTK OE cells), CHO cells overexpressing human PDL1 (CHO-human PDL1 OE cells), and M2c-differentiated human macrophages.
as §1

In experiment [4] the target is T1, human MerTK on M2c-differentiated human …. Briefly: flow cytometry on M2c-differentiated human macrophages.
Source text: as §1

Experiment [5] concerns the target T3, human MerTK overexpressed on CHO cells (human, UniProt Q12866 21-999).
T3 construct: also called CHO-huMerTK OE; CHO-human MerTK OE cells
T3 sequence: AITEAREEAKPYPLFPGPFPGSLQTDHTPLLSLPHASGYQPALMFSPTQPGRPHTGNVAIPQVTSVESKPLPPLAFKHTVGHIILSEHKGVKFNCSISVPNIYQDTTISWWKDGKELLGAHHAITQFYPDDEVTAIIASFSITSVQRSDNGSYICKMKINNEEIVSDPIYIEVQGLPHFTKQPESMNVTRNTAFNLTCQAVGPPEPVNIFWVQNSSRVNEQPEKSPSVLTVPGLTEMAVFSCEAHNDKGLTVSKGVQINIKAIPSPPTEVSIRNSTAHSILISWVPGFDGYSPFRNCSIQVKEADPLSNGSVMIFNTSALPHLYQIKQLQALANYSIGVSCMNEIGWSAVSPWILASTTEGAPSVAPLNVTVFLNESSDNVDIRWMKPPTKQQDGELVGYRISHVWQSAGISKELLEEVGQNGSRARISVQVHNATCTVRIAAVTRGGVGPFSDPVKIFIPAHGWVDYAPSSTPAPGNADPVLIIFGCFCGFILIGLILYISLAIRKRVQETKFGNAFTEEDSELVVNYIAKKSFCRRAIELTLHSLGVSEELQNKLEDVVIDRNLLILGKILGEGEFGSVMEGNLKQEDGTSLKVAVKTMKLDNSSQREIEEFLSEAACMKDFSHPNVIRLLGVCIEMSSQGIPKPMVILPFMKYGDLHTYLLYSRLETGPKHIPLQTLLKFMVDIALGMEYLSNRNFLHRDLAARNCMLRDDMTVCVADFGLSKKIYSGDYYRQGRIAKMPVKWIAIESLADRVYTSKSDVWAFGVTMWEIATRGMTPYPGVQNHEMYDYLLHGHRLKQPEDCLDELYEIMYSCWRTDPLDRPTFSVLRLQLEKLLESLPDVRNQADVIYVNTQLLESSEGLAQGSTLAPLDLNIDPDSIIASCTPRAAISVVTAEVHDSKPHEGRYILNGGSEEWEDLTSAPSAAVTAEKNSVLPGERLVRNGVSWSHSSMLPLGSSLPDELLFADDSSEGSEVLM
Put plainly: flow cytometry, Dylight650-conjugated antibody on CHO-huMerTK OE cells, MFI. The method, then: as §2, §1

The target of experiment [6] is T3, human MerTK overexpressed on CHO cells. Briefly: flow cytometry on CHO-huMerTK OE cells.
Source text: as §1

T2 sequence (Q9NZQ7 19-290): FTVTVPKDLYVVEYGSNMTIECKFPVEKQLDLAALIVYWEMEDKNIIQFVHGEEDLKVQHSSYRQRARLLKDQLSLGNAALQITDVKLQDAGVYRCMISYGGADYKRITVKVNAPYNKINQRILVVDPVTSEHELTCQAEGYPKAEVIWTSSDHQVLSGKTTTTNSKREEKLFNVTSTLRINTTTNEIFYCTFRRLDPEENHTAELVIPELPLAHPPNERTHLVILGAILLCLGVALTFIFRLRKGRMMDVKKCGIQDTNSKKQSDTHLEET

B1: monovalent anti-MerTK antibody MTK-33.11 (antibody, V domains shown)
VH: QVQLVQSGAEVKKPGASVKVSCKASGYTFTSYWMHWVRQAPGQGLEWIGVIDPSDNYINYNQKFQGRVTMTRDTSTSTVYMELSSLRSEDTAVYYCAREAWTRGYFDYWGQGTLVTVSS
VL: DIQMTQSPSSLSASVGDRVTITCQASRSVRNTVAWYQQKPGKAPKLLIYYASNRYTGVPSRFSGSGSGTDFTFTISSLQPEDIATYYCQQDYRSPFTFGQGTKLEIK
For orientation: Kd means the free concentration of one partner at which half of the binding sites on the other are occupied at equilibrium, for simple one-to-one binding. A high value points to weaker binding. B1 came in with a Kd in experiment [1] of 9.96 nM. In addition, the binding result in the experiment with human PDL1 [2] was “no binding”.

B2: bivalent anti-MerTK antibody MTK-33.11 (full IgG) (antibody, V domains shown)
VH: QVQLVQSGAEVKKPGASVKVSCKASGYTFTSYWMHWVRQAPGQGLEWIGVIDPSDNYINYNQKFQGRVTMTRDTSTSTVYMELSSLRSEDTAVYYCAREAWTRGYFDYWGQGTLVTVSS
VL: DIQMTQSPSSLSASVGDRVTITCQASRSVRNTVAWYQQKPGKAPKLLIYYASNRYTGVPSRFSGSGSGTDFTFTISSLQPEDIATYYCQQDYRSPFTFGQGTKLEIKR
By EC50 (read off the curve) is commonly meant the midpoint of the concentration-response curve. Low readings indicate a more potent agent, high ones a less potent agent. Consider B2, for which the binding result with human PDL1 [3] was “no binding (tested: about 70 nM)”. The results for the “fold higher affinity compared to its monovalent form (monovalent MTK-33.11)” value in experiment [4] and in experiment [6] were approximately 5 fold and approximately 10 fold, respectively. The affinity in experiment [1], expressed as Kd, was 2 nM. Besides, the half-maximal effective concentration (EC50 (read off the curve)) in experiment [5] is approximately 4 nM.

B3: monovalent anti-MerTK antibody MTK-16.2 (antibody, V domains shown)
VH: QVQLVQSGSELKKPGASVKVSCKASGYTFTNHGMNWVRQAPGQGLEWMGWINTYTGEPTYADDFKGRFVFSLDTSVSTAYLQISSLKAEDTAVYYCARKGVTAARYFDYWGQGTLVTVSS
VL: DIQMTQSPSSLSASVGDRVTITCRASQNVRTAVAWYQQKPGKAPKRLIYLASNRHTGVPSRFSGSGSGTEFTLTISNLQPEDFATYYCLQHWNYPLTFGGGTKLEIK
Molecule B3 returned a Kd in experiment [1] of 77.8 nM. The binding result in the experiment with human PDL1 [2] is “no binding”.

B4: bivalent anti-MerTK antibody MTK-16.2 (full IgG) (antibody, V domains shown)
VH: QVQLVQSGSELKKPGASVKVSCKASGYTFTNHGMNWVRQAPGQGLEWMGWINTYTGEPTYADDFKGRFVFSLDTSVSTAYLQISSLKAEDTAVYYCARKGVTAARYFDYWGQGTLVTVSS
VL: DIQMTQSPSSLSASVGDRVTITCRASQNVRTAVAWYQQKPGKAPKRLIYLASNRHTGVPSRFSGSGSGTEFTLTISNLQPEDFATYYCLQHWNYPLTFGGGTKLEIKR
With B4, the binding result with human PDL1 [3] is “no binding (tested: about 70 nM)”. The Kd in experiment [1] amounted to 51.9 nM.
